Data taken from the supplement of paper PMC9170038.

Tested on: MS2 coat protein
Test: apparent KD of MS2 coat protein; designed switch direction (-1 OFF switch, 1 ON switch): 1; higher = weaker reporter binding
How it was run: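 Transcription of designed RNA switches on Illumina chips was done by stalled E. coli RNA polymerase. SNAP-549-labelled MS2 coat protein was then titrated in doubling steps from 0.7 or 1.5 nM to 3 µM, with steps of 0.8–1.5 h at the lowest and 10–20 min at the highest concentration. The per-design median over clusters of curve-fitted normalised fluorescence is reported as apparent KD.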

[1] = input ligand: microRNA oligo, concentration not stated
[2] = Eterna round: R95, input ligand: FMN 200 uM
[3] = Eterna round: R95, input ligand: microRNA oligo, concentration not stated
[4] = Eterna round: R95, input ligand: none

Sequence	apparent KD of MS2 coat protein (input ligand: FMN 200 uM)	apparent KD of MS2 coat protein [1]	apparent KD of MS2 coat protein (input ligand: none)	apparent KD of MS2 coat protein [2]	apparent KD of MS2 coat protein [3]	apparent KD of MS2 coat protein [4]
AGCUAUUAAUCAGGAUAUAGUGACAUGAGGAUCACCCAUGUAUUGAUGAUUAAAUGUGGUCGCCGCUAGAAGGGAUUACUAACA [SameState NG2 #46] (Eterna round: R96, puzzle: Same State NG 2)	0.0352 µM	0.0232 µM	0.0307 µM	–	–	–
GGUCCAUCAUGAGGAUAUGGCACCUUAUUGGUGCCAGAAGGCAUGUAAAUUAUAAUAAAUACAUGAGGAUCACCCAUGUGGACC [Eli NG1ss - 98] (Eterna round: R96, puzzle: Same State NG 1)	1.23 µM	0.0802 µM	0.407 µM	–	–	–
GCCGCGUUUCGCGCCUACAUGAGGAUCACCCAUGUUUGUAGGCAGGAUAUCGUCCGCUUUGCGGGCGAGAAGGGCUGUUGUGGC [salish99_SSNG3_R04_021] (Eterna round: R96, puzzle: Same State NG 3)	0.047 µM	0.0435 µM	0.0548 µM	–	–	–
UAGUACAUGCUUUUUGUCUGUCUUAGAUCACAUGAGGAUCACCCAUGUUUGGUGAAAGUUAUAUAGUUUAUGACUAU [JR_SHM208A_Sub059] (puzzle: Sensor for hsa-mir-208a)	–	–	–	0.114 µM	0.0968 µM	0.162 µM
AUUAGUUAUGCAGGAUAUGAUUAACAUGAGGAUCACCCAUGUGGUGUUGUGAGUAAGGAGAGUGAUCAGAAGGGCAUUUUUUUU [JMF's solution 67] (Eterna round: R96, puzzle: Same State NG 2)	0.462 µM	0.264 µM	0.644 µM	–	–	–
UGUUGUAUUACAGGAUAUCUAUUAUUUUUAUAUAGAGAAGGGUAUUCACAUGAGGAUCACCCAUGUAUAUACGAGGAAGUUGUG [JMF's solution 28] (Eterna round: R96, puzzle: Same State NG 1)	–	0.0296 µM	–	–	–	–
CGUCCGGCCUGUGCUGGCCGGAAGCAUGUACAUGAGGAUCACCCAUGUUCAUGUGCUGGCUUUUUGCUCGUCUUGUG [salish99_mir208a_011] (puzzle: Sensor for hsa-mir-208a)	–	–	–	0.0139 µM	0.0111 µM	0.014 µM
CACAAUCUAUCUGAGGAUAUCAUGAAAAAAACAUGAGGAUCACCCAUGUGCAGGAAAACUGCAUAUGAGAAGGCAGAUAGAUUGC [salish99_SS2_r3_013] (puzzle: Same State 2)	–	–	–	0.0279 µM	0.46 µM	0.943 µM
GGAUGAUUGACAGGAUAUCAUUUGUAAAUUCGAUGAGAAGGGUCGAUUACUUACACGACGUGUUACAUGAGGAUCACCCAUGUU [SameState NG1 #5] (Eterna round: R96, puzzle: Same State NG 1)	0.0537 µM	0.116 µM	0.148 µM	–	–	–
GAGGAACAGGCCAACAUGAGGAUCACCCAUGUCCUCGCACUUCAGGAUAUCUGGAGGAAGAAGAAAGAGAAGGGAAGGUGAAGC [AK SSNG3-V2-34.2] (Eterna round: R96, puzzle: Same State NG 3)	0.202 µM	0.0301 µM	0.0193 µM	–	–	–
AGGCUCAGACGAGGAUAUAUGUCUCGAGCUUCGGCUCGAGACAUGAGGAUCACCCAUGUAAUAACAUAGAAGGUGUCUGAGCCA [SSNG2/1-C1] (Eterna round: R96, puzzle: Same State NG 2)	0.0491 µM	0.208 µM	0.253 µM	–	–	–
CCGCUCUAUGGAGGAUAUGGGCCUGCCCGGGAUAACGGGCCUAAUACAUGAGGAUCACCCAUGUCCCAGAAGGCCGCUAGAGCC [Errexexe] (Eterna round: R96, puzzle: Same State NG 2)	0.12 µM	0.348 µM	0.471 µM	–	–	–
UUUAGUUGCGGGCAGGAUAUGUAUUAAAAUACAUGAGGAUCACCCAUGUGAGAUCAUAAAGAUCUACAGAAGGGCCAAUCGCGAC [Laonerce - 18] (puzzle: Same State 2)	–	–	–	0.0134 µM	0.0694 µM	0.0916 µM
UAUGAACAUGAGGAUCACCCAUGUGGUAAGAUCACAGGAUAUCACCUCGGACGUGCGAUGUGAGAAGGGUGAUGGU [Same State 1 - Mod of Vinnie Anrelari v.2] (puzzle: Same State 1)	–	–	–	–	0.419 µM	–
GGAAUAUUUACAGGAUAUGAUUUGUUAAGUCGAUCAGAAGGGUGGAUGUCUUACACGGUUUGUUACAUGAGGAUCACCCAUGUC [SameState NG1 #14] (Eterna round: R96, puzzle: Same State NG 1)	0.0733 µM	0.074 µM	0.176 µM	–	–	–
UUAUUAUUUACAUGAGGAUCACCCAUGUUUUUAUGUCAGAGACAGGAUAUAGUAGUCUCGUUUUACUAGAAGGGUCUUUUUAUU [JR_SSNG3_Sub017] (Eterna round: R96, puzzle: Same State NG 3)	0.0152 µM	0.0189 µM	0.0221 µM	–	–	–

Sequence	apparent KD of MS2 coat protein (input ligand: FMN 200 uM)	apparent KD of MS2 coat protein [1]	apparent KD of MS2 coat protein (input ligand: none)	apparent KD of MS2 coat protein [2]	apparent KD of MS2 coat protein [3]	apparent KD of MS2 coat protein [4]
AGAGGAGGCGCAGGAUAUACGACGGAGGACGUGGUAGAAGGGUGCAUGCGAUAACAUGAGGAUCACCCAUGUACCGCGCGACGA [AK SSNG1-V2-17] (Eterna round: R96, puzzle: Same State NG 1)	0.21 µM	0.0302 µM	0.198 µM	–	–	–
GCUACCAUUGAAGCCUACAUGAGGAUCACCCAUGUAUGUAGGCAGGAUAUCGAUUGCUUUGCGAUCGAGAAGGGCUUAGGUAGC [JL SSNG3 1.30] (Eterna round: R96, puzzle: Same State NG 3)	0.0216 µM	0.0475 µM	0.0608 µM	–	–	–
CACAAUCUAUCUGAGGAUAUCAUGAAAAAAACAUGAGGAUCACCCAUGUGCAGGAAAACUGCAUAUGAGAAGGCAGAUAGAUUGC [salish99_SS2_r3_013] (Eterna round: R96, puzzle: Same State 2)	–	0.452 µM	–	–	–	–
CAGCGCUGUCGAGAGGAUAUGCGGUGAUGGACAUGAGGAUCACCCAUGUUAGCGACAGCAUCACGGCAGAAGGCUCUACCGCUGG [Soteed Omei mod 42] (puzzle: Same State 2)	–	–	–	0.0126 µM	0.00978 µM	0.00961 µM
AUCCUACAUGAGGAUCACCCAUGUGACGCCUCGAUAGGAUAUGCGUGUGCCUUGGCGCAUGCAGAAGGAUUGUAGC [JL Aveso mod 6] (puzzle: Same State 1)	–	–	–	–	0.0305 µM	–
UCUAUUGUGGUAGGAUAUCUAGGAUAUGGGAAGAGCUAAGCUUGGAAGUCACUUCACCCAGAAGGAGAGAAGGACCAGAGACUU [pwkr ssNG2 2FMN + F9.7] (Eterna round: R96, puzzle: Same State NG 2)	1.23 µM	0.778 µM	0.475 µM	–	–	–
GUUACAUGAGGAUCACCCAUGUAUGUGUGGGAGUAAGUGUCUUAGGAUAUCUAUGAUUUAAUCUAAGAGAAGGAAGAUUGUUGU [JMF's solution 82] (Eterna round: R96, puzzle: Same State NG 3)	0.114 µM	0.0768 µM	0.0953 µM	–	–	–
AUUUAACAAGCUUUUUGCUCGUCUUAUAAACAUGAGGAUCACCCAUGUAAUAGCGUGAGAGUAAUUUAUUAAAUAAU [JMF 92] (puzzle: Sensor for hsa-mir-208a)	–	–	–	0.0156 µM	0.041 µM	0.0156 µM
AUAAGUUUGAUGCUCGUCUCUCCGUACUAACAUGAGGAUCACCCAUGUGGUCGGGAAGUAGCCCGGCCAGUAUGGCC [Lequteti] (puzzle: Sensor for hsa-mir-208a)	–	–	–	0.0195 µM	0.0194 µM	0.0193 µM
AACGUUGGCGAGCAGGAUAUCCGCUCAUUAACAUGAGGAUCACCCAUGUUCUGCAAGAUGUGCUAGGAGAAGGGCUGGUCGACAU [Edatar] (puzzle: Same State 2)	–	–	–	0.0149 µM	0.0182 µM	0.0348 µM
AUAGUGUACGCAGGAUAUCGAUGAGGAACAUGAGGAUCACCCAUGUUGUGAGGAUCACCCAUGUAUGAGAAGGGCGACCCAUGU [Same State NG2 S1] (Eterna round: R96, puzzle: Same State NG 2)	0.148 µM	0.046 µM	0.0577 µM	–	–	–
AAAGCACAUGAGGAUCACCCAUGUGGAAAUAACACAGGAUAUCCGGCCGAAAAUACGGUGGGAGAAGGGUGACCUA [Inxetemama] (puzzle: Same State 1)	–	–	–	0.302 µM	0.0604 µM	0.0867 µM
UAGGAACAUGAGGAUCACCCAUGUACCUCAUAUGGAGAAACACAGGAUAUGCUGAGGGAAACACAGCAGAAGGGUGAAGAGAGG [Default title] (Eterna round: R96, puzzle: Same State NG 3)	0.0227 µM	0.0271 µM	0.0328 µM	–	–	–
ACAUGAGGAUCACCCAUGUAACACCUGAAAAUAAAACGAACACAGGAUAUCCCAGCAUGACGCCGGGAGAAGGGUGAUCGAAGA [Quorer] (Eterna round: R96, puzzle: Same State NG 3)	0.124 µM	0.118 µM	0.0528 µM	–	–	–
UAGAGAGGAAGCGAGGAUAUCGUGUUAGGUACAUGAGGAUCACCCAUGUUUUAGGUAGAGGUAGGCGAGAAGGCGCAGGAGAGGA [JR_SS2_Sub091] (puzzle: Same State 2)	–	–	–	0.0249 µM	0.0292 µM	0.0244 µM
AGGUAACAUGAGGAUCACCCAUGUAAGGUGAACGUAGGAUAUCGAGGAGGUAGGGUAGGCCGAGAAGGACGAGGAG [JR_SS1_Sub093] (puzzle: Same State 1)	–	–	–	–	0.221 µM	–
